Results as given in patent US20100150834A1, “HIGH AFFINITY EPHB RECEPTOR BINDING COMPOUNDS AND METHODS OF USE THEREOF” (priority 2006, published 2010).

Columns and labels:
[1] = target: murine EphB4-Alkaline Phosphatase (murine) (UniProt P54761); assay: competition ELISA: murine EphB4-AP binding to immobilised murine ephrin-B2-Fc
murine EphB4-Fc (murine) = murine EphB4-Fc (murine) (UniProt P54761); assay: ELISA: murine EphB4-Fc on protein A plates, biotinylated peptide detected with streptavidin-HRP
Chain of murine EphB4-Fc (murine) (P54761 16-539 limits assumed): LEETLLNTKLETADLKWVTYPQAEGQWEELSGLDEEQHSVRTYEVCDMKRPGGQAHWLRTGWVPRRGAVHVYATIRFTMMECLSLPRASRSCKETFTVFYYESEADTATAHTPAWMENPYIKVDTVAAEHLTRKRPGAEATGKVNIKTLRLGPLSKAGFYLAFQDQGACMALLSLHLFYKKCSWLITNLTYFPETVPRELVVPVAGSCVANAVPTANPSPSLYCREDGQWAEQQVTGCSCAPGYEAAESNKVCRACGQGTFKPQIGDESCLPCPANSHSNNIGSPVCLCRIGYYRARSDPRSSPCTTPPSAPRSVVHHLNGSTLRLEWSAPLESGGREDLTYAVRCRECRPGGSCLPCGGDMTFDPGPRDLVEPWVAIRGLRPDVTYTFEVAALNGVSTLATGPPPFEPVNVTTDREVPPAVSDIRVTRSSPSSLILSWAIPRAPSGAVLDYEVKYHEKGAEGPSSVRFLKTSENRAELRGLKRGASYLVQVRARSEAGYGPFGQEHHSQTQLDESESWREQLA

[2] = target: murine EphB4-Alkaline Phosphatase (murine) (UniProt P54761); assay: ELISA binding curve: TNYL-RAW Fc immobilised, increasing volumes of murine EphB4 AP, OD405; one experiment

Chain of murine EphB4-Alkaline Phosphatase (murine) (P54761 16-539): as the sequence (P54761 16-539 limits assumed) above

IC50 [1] [nM] | Kd (murine EphB4-Fc (murine)) [nM] | Kd [2] [nM] | Substance
7 | 0.9 | – | PEG 3.4 kDa-linked TNYL-RAW-biotin dimer (peptide)
9 | 0.9 | – | PEG 10 kDa-linked TNYL-RAW-biotin dimer (peptide)
– | – | 10 | TNYL-RAW Fc fusion protein
21 | 1.4 | – | TNYL-RAW-biotin coupled to monofunctional 10 kDa PEG (monomer) (peptide)
